According to US20210403913:

Key:
[1] = target: CXCL8 (IL-8) (Homo sapiens) (UniProt P10145); assay: SPR; settings: L-RNA, CXCL8 immobilised
[2] = target: D-CXCL8 (mirror-image human CXCL8) (synthetic (human sequence)) (UniProt P10145); assay: competition; settings: competition pull-down vs labelled 315-F8-001; 37 C
[3] = target: D-CXCL8 (mirror-image human CXCL8) (synthetic (human sequence)) (UniProt P10145); assay: pulldown; settings: direct pull-down, 37 C

“CUGACGGAAGUACGUGGAAAGCCGAAAGUGUGUCCCGGUCAG [315-F8-002-PEG (AON-S08)]” showed a Kd ([1]; 5'-aminohexyl linker with 40 kDa Y-shape PEG, 25 C) of 0.2 nM and a Kd ([1]; 5'-aminohexyl linker with 40 kDa Y-shape PEG, 37 C) of 0.8 nM.
“CUGACGGAAGUACGUGGAAAGCCGAAAGUGUGUCCCGGUCAG [315-F8-002 (L)]” gave a Kd ([1]; 25 C) of 0.22 nM and a Kd ([1]; 37 C) of 0.75 nM.
“CUGACGGAAGUACGUGGAAAGCCGAAAGUGUGUCCCGGUCAG [315-F8-002 (D)]” gave a Kd [2] of 1.1 nM.
In the case of “GCUGACGGAAGUACGUGGAAAGCCAAUGAGUGUGUCCCGGUCAGC [315-H9-001 (D)]”, the Kd [3] is reported as 1.7 nM.
In the case of “GCUGACGGAAGUACGUGGAAAGCCGAAAGUGUGUCCCGGUCAGC [315-F8-001 (L)]”, the Kd ([1]; 25 C, 20 mM Tris pH 7.4, 150 mM NaCl, 5 mM KCl, 1 mM MgCl2, 1 mM CaCl2) is reported as 0.22 nM and the Kd ([1]; 37 C) is reported as 0.68 nM.
“GCUGACGGAAGUACGUGGAAAGCCGAAAGUGUGUCCCGGUCAGC [315-F8-001 (D)]” gave a Kd ([3]; 20 mM Tris pH 7.4, 150 mM NaCl, 5 mM KCl, 1 mM MgCl2, 1 mM CaCl2, yeast RNA) of 0.8 nM.
